Source: patent publication US7951356B1, “Tissue factor compositions and kits for coagulation and tumor treatment” (Board of Regents, The University of Texas System, priority 1997, dated 2011)

Legend:
[1] = tested on: L540 human Hodgkin's disease tumors; assay: Anti-tumor effects (tumor growth), L540 tumors; format: in vivo, mouse; conditions: day 14; FIG. 19
Method: (§1) Accepted animal models were used to determine whether administration of tTF or immunoglobulin-tTF conjugates suppressed the growth of solid tumors in mice. The tumor test systems were: i) L540 human Hodgkin's disease tumors growing in SCID mice; ii) C1300 Muγ (interferon-secreting) neuroblastoma growing in nu/nu mice; iii) H460 human non-small cell lung carcinoma growing in nu/nu mice. To establish solid tumors, 1.5×10^7 tumor cells were injected subcutaneously into the right anterior flank of SCID or BALB/c nu/nu mice (Charles River Labs., Wilmingham, Mass.). When the tumors had grown to various diameters, mice were assigned to different experimental groups, each containing 4 to 9 mice.
(§2) Mice then received an intravenous injection of 0.5 mg/kg of tTF alone or linked to bispecific antibody. Other mice received equivalent quantities of bispecific antibody alone. The injections were performed over ˜45 seconds into one of the tail veins, followed by 200 μl of saline. The infusions were repeated six days later. Perpendicular tumor diameters were measured at regular intervals and tumor volumes were calculated.

[2] = tested on: HT29 (human colorectal carcinoma) xenograft; assay: Tumor necrosis in HT29 xenografts 24 hours after treatment (Example XII); format: in vivo, mouse; conditions: 24 hours after intravenous injection; tumors 0.5 to 1.0 cm^3; FIG. 23
Method: For these studies, the inventors chose the HT29 (human colorectal carcinoma) xenograft tumor model. HT29 cells (10^7 cells/mouse) were subcutaneously injected into BALB/c nu/nu mice. Tumor dimensions were monitored and animals were treated when the tumor size was between 0.5 and 1.0 cm^3.
Animals were sacrificed 24 hours after treatment, perfused with saline and heparin and exsanguinated. Tumors and organs were collected, formalin fixed and histological sections were prepared. The average area of necrosis in sections of the tumors was quantified and calculated as a percentage of the total area of tumor on the section.

[3] = cited from earlier work
[4] = tested on: citrated mouse plasma; assay: In vitro coagulation assay: tTF constructs localized on A20 lymphoma cells via bispecific antibody B21-2/10H10; format: cell-based; conditions: for time in which plasma coagulated: FIG. 20; for coagulation time: FIG. 4B
Method: This assay was used to verify that tTF, various derivatives and mutants thereof, and immunoglobulin-tTF conjugates acquire coagulation inducing activity once localized at a cell surface. A20 lymphoma cells (I-A^d positive) (2×10^6 cells/ml, 50 μl) were incubated for 1 h at room temperature with a bispecific antibody (50 μg/ml, 25 μl) consisting of a Fab′ arm of the B21-2 antibody directed against I-A^d linked to a Fab′ arm of the 10H10 antibody directed against a non-inhibitory epitope on tTF. The cells were washed at room temperature and varying concentrations of tTF, derivatives or mutants thereof, or immunoglobulin-tTF conjugates were added for 1 hour at room temperature. The bispecific antibody captures the tTF or tTF linked to immunoglobulin, bringing it into close approximation to the cell surface, where coagulation can proceed.
The cells were washed again at room temperature, resuspended in 75 μl of PBS and warmed to 37° C. […] The time for the first fibrin strands to form was recorded. Clotting time was plotted against tTF concentration and curves compared with standard curves prepared using standard tTF219 preparations.

[5] = tested on: C1300 Muγ mouse neuroblastoma; assay: In vivo tumor thrombosis, C1300 Muγ tumors
Text: (§3) Tumor test systems were of four types: i) 3LL mouse lung carcinoma growing subcutaneously in C57BL/6 mice; ii) C1300 mouse neuroblastoma growing subcutaneously in BALB/c nu/nu mice; iii) HT29 human colorectal carcinoma growing subcutaneously in BALB/c nu/nu mice; and iv) C1300 Muγ mouse neuroblastoma growing subcutaneously in BALB/c nu/nu mice. The C1300 Muγ tumor is an interferon-γ secreting transfectant derived from the C1300 tumor (Watanabe et al., 1989).
Further, the C1300 (Muγ) tumor model of (Burrows, et al., 1992; incorporated herein by reference) was employed and modified as follows: (i) antibody B21-2 was used to target I-A^d; (ii) C1300(Muγ) tumor cells, a subline of C1300(Muγ) 12 tumor cells, that grew continuously in BALB/c nu/nu mice were used; and (iii) tetracycline was […] the mice's drinking water to prevent gut bacteria from inducing I-A^d on the gastrointestinal epithelium.
(§4) To establish tumors, 10^6 to 1.5×10^7 tumor cells were injected subcutaneously into the right anterior flank of the mice. When tumors had grown to various sizes, mice were randomly assigned to different study groups. Mice then received an intravenous injection of 0.5 mg/kg of tTF alone or linked to IgG, Fab′, or bispecific antibody. Other mice received equivalent quantities IgG, Fab′ or bispecific antibody alone. The injections were performed slowly into one of the tail veins over approximately 45 seconds, usually followed by 200 μl of saline.
(§5) Twenty-four hours after being injected with tTF or immunoglobulin-tTF conjugates, the mice were anesthetized with metophane and were exsanguinated by perfusion with heparinized saline. Tumors and normal tissues were excised and immediately fixed in 3% (v/v) formalin. Paraffin sections were cut and stained with hematoxylin and eosin. Blood vessels having open lumens containing erythrocytes and blood vessels containing thrombi were counted. Paraffin sections were cut and stained with hematoxylin and eosin or with Martius Scarlet Blue (MSB) trichrome for the detection of fibrin.

[6] = tested on: C1300 mouse neuroblastoma; assay: In vivo tumor thrombosis, C1300 tumors
Text: as §3, §4
(§6) Twenty-four hours after being injected with tTF or immunoglobulin-tTF conjugates, the mice were anesthetized with metophane and were exsanguinated by perfusion with heparinized saline. Tumors and normal tissues were excised and immediately fixed in 3% (v/v) formalin. […] Blood vessels having open lumens containing erythrocytes and blood vessels containing thrombi were counted. […]

[7] = tested on: 3LL mouse lung carcinoma; assay: In vivo tumor thrombosis, 3LL tumors; conditions: C57BL/6 mice, large (>800 mm^3) tumors; FIG. 11
Text: as §3, §4, §6

[8] = tested on: C1300 Muγ (interferon-secreting) neuroblastoma; assay: Anti-tumor effects (tumor growth), C1300 Muγ tumors; format: in vivo, mouse
Method: as §1, §2

[9] = tested on: H460 human non-small cell lung carcinoma; assay: Anti-tumor effects (tumor growth), H460 tumors; format: in vivo, mouse; conditions: FIG. 13
Method: as §1, §2

[10] = tested on: HT29 human colorectal carcinomas; assay: Anti-tumor effects (tumor growth), HT29 tumors; format: in vivo, mouse; conditions: nu/nu mice, large (1200 mm^3) tumors, intravenous; FIG. 14
Method: Anti-tumor effects were also observed in mice bearing HT29 human colorectal carcinomas (FIG. 14). Nu/nu mice bearing large (1200 mm^3) tumors on their flanks were injected intravenously with tTF219 or PBS (control), and growth of the tumors was monitored each day for 10 days. The tumors in the tTF219 treated mice discontinued growth for about 7 days after treatment, whereas the tumors in mice treated with PBS continued to grow unchecked.

[11] = Toxicity and histology of normal organs in treated tumor-bearing mice; format: in vivo, mouse; conditions: 30 minutes or 24 hours after administration
Text: as §5

[12] = tested on: factor X; conditions: appropriate phospholipid membrane environment; Ruf, et al., 1991b; cited from earlier work
[13] = Toxicity to mice of tTF mutants and Factor VIIa given separately; format: in vivo

COc1cc([C@@H]2c3cc4c(cc3[C@@H](O[C@@H]3O[C@@H]5CO[C@@H](C)O[C@H]5[C@H](O)[C@H]3O)[C@H]3COC(=O)[C@H]23)OCO4)cc(OC)c1O [etoposide]
average tumor volume [1]: 1400 mm^3

Factor VIIa: recombinant human Factor VIIa
necrosis in tumor sections, in words [2]: some necrosis | half-life in vivo [3]: approximately two

B1: tTF219: truncated Tissue Factor: residues 1-219 of TF plus an additional glycine at the N-terminus; SEQ ID NO:1 (protein)
chain: GSGTTNTVAAYNLTWKSTNFKTILEWEPKPVNQVYTVQISTKSGDWKSKCFYTTDTECDLTDEIVKDVKQTYLARVFSYPAGNVESTGSAGEPLYENSPEFTPYLETNLGQPTIQSFEQVGTKVNVTVEDERTLVRRNNTFLSLRDVFGKDLIYTLYYWKSSSSGKKTAKTNTNEFLIDVDKGENYCFSVQAVIPSRTVNRKSTDSPVECMGQEKGEFRE
time in which plasma coagulated ([4]; 10^−10 M tTF219, absence of Factor VIIa): 60 s | time in which plasma coagulated ([4]; 10^−10 M tTF219, presence of 13.5 nM Factor VIIa): 20 s | coagulation time ([4]; 20,000 molecules per cell): 140 s | coagulation time ([4]; 300,000 molecules of tTF per cell): 40 s | effect on coagulation time ([4]; A20 cells incubated without both specificities needed to bind tTF to the cells, FIG. 4A): no effect on coagulation time | increase in coagulation-inducing potency of tTF ([4]; presence of 0.1 nM Factor VIIa): 2-5 fold | time until fibrin strands were visible after the addition of plasma ([4]; tTF bound to A20 cells by B21-2/10H10, mouse plasma, FIG. 4A): 36 s | thrombosis of tumor vessels ([5]; 24 hours after injection, large tumors, FIG. 9): practically all vessels in all regions of the tumor were thrombosed | effect on tumor vessels ([5]; small (<500 mm^3) tumors): largely unaffected | gross appearance of tumors ([5]; starting within 30 minutes, progressively more marked up to 24 hours): blackened, bruised appearance | thrombosis of tumor vessels ([6]; large tumors (>1000 mm^3), 24 hours after injection, FIG. 10): virtually all vessels were thrombosed | effect on tumor vessels ([6]; small (<500 mm^3) tumors): largely unaffected | tumor vessels thrombosed, on average [7]: 62% | tumor size relative to controls receiving diluent alone ([8]; fourteen days after the first injection, small (300 mm^3) tumors, treatment repeated 6 days later, FIG. 18): 75% | tumor response ([8]; large (0.8 to 1.0 cm diameter) tumors, two intravenous injections 6 days apart, FIG. 12A): grew significantly more slowly | tumor size relative to tumors in mice receiving diluent alone ([8]; one week after the second treatment, small (300 mm^3) tumors at start): 60% | effect of the first treatment on tumor growth ([8]; small (300 mm^3) tumors, 16-20 μg intravenously, FIG. 12B): slight inhibitory effect on tumor growth | effect of the second treatment on tumor growth ([8]; treatment repeated one week later, FIG. 12B): substantially greater, statistically significant (P<0.01), effect on tumor growth | tumor volume to which tumors regressed before regrowing ([9]; second treatment given when tumors were 900 mm^3): 550 mm^3 | effect of the first treatment ([9]; tumors small (250 mm^3)): little effect on growth rate | time for which tumors discontinued growth after treatment [10]: about 7 days | necrosis in tumor sections, in words [2]: some necrosis | thrombi or abnormalities in paraffin sections of liver, kidney, lung, intestine, heart, brain, adrenals, pancreas, spleen [11]: neither thrombi, nor histological or morphological abnormalities were visible | times less factor X-activating activity relative to native transmembrane TF [12]: approximately 10^5 times

B2: tTF219 (G164A): amino acid 164 (Gly) of tTF219 replaced by Ala; SEQ ID NO:9 (protein)
chain: SGTTNTVAAYNLTWKSTNFKTILEWEPKPVNQVYTVQISTKSGDWKSKCFYTTDTECDLTDEIVKDVKQTYLARVFSYPAGNVESTGSAGEPLYENSPEFTPYLETNLGQPTIQSFEQVGTKVNVTVEDERTLVRRNNTFLSLRDVFGKDLIYTLYYWKSSSSAKKTAKTNTNEFLIDVDKGENYCFSVQAVIPSRTVNRKSTDSPVECMGQEKGEFRE
coagulation times compared with tTF219 and Factor VIIa at the same concentrations ([4]; addition of Factor VIIa at 1 nM or greater, FIG. 22): only marginally slower coagulation times | coagulation-inducing activity once localized on A20 cells via B21-2/10H10, in words (compared with tTF219) ([4]; plasma coagulation): Weak coagulation | necrosis in tumor sections, in words [2]: some necrosis | toxicity to mice [13]: practically non-toxic
